Test [1] concerns the target A2ML1-CC (TEV-P-cleaved A2ML1t with covalently conjugated TEV-P) (human | tobacco etch virus) (UniProt A8K2U0). As to the kind of experiment: cryo-EM structure; TEV-P-cleaved A2ML1t samples on grids; monomers and dimers separated by 2D classification, multi-class ab initio reconstruction and heterogeneous refinement.
The target of test [2] is TEV-P-cleaved A2ML1t prepared in the presence of BAPN, without conjugated TEV-P (human) (UniProt A8K2U0). The test is described as above.

Chain of TEV-P-cleaved A2ML1t prepared in the presence of BAPN, without conjugated TEV-P (A8K2U0 19-1454): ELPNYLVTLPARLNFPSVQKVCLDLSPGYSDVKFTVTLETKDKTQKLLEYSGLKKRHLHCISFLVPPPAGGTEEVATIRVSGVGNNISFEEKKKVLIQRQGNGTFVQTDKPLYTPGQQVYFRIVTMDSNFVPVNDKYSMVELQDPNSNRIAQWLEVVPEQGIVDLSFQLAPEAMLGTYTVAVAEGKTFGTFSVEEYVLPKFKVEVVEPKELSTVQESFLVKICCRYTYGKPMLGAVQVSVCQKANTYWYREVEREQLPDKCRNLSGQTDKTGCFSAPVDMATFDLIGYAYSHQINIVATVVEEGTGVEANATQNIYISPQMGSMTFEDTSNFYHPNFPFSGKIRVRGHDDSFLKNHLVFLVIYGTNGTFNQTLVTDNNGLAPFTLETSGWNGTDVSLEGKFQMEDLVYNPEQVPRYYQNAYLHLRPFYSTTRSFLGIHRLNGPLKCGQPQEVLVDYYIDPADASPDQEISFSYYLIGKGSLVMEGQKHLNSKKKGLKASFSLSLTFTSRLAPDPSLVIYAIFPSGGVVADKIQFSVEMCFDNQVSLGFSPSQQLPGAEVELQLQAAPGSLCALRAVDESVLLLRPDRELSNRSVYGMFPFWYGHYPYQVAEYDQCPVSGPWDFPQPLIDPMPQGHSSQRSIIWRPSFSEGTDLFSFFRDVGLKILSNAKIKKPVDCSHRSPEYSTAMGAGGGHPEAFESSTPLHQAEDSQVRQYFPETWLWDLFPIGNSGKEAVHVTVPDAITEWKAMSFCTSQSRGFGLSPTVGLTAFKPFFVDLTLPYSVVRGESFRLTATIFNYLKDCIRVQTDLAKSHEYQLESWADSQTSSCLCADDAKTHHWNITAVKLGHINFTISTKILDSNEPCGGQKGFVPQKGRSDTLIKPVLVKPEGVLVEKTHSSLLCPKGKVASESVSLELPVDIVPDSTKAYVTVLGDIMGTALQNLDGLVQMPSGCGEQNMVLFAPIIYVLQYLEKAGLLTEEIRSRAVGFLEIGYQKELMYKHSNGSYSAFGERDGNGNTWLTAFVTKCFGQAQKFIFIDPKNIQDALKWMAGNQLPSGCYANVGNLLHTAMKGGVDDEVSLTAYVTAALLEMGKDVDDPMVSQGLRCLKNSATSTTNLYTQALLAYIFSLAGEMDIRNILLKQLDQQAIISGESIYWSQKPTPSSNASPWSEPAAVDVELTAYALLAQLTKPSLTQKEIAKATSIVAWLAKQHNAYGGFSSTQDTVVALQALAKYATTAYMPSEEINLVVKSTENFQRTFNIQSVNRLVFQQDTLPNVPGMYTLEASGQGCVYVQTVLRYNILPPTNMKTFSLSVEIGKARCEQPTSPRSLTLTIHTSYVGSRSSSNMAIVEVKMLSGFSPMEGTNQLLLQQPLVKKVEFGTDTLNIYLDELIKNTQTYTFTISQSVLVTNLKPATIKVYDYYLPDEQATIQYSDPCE
Chain of TEV-P-cleaved A2ML1t prepared in the presence of BAPN, without conjugated TEV-P (A8K2U0 19-1454): as above
Chain of A2ML1-CC (TEV-P-cleaved A2ML1t with covalently conjugated TEV-P) (A8K2U0 whole entry, looked up, one chain of several): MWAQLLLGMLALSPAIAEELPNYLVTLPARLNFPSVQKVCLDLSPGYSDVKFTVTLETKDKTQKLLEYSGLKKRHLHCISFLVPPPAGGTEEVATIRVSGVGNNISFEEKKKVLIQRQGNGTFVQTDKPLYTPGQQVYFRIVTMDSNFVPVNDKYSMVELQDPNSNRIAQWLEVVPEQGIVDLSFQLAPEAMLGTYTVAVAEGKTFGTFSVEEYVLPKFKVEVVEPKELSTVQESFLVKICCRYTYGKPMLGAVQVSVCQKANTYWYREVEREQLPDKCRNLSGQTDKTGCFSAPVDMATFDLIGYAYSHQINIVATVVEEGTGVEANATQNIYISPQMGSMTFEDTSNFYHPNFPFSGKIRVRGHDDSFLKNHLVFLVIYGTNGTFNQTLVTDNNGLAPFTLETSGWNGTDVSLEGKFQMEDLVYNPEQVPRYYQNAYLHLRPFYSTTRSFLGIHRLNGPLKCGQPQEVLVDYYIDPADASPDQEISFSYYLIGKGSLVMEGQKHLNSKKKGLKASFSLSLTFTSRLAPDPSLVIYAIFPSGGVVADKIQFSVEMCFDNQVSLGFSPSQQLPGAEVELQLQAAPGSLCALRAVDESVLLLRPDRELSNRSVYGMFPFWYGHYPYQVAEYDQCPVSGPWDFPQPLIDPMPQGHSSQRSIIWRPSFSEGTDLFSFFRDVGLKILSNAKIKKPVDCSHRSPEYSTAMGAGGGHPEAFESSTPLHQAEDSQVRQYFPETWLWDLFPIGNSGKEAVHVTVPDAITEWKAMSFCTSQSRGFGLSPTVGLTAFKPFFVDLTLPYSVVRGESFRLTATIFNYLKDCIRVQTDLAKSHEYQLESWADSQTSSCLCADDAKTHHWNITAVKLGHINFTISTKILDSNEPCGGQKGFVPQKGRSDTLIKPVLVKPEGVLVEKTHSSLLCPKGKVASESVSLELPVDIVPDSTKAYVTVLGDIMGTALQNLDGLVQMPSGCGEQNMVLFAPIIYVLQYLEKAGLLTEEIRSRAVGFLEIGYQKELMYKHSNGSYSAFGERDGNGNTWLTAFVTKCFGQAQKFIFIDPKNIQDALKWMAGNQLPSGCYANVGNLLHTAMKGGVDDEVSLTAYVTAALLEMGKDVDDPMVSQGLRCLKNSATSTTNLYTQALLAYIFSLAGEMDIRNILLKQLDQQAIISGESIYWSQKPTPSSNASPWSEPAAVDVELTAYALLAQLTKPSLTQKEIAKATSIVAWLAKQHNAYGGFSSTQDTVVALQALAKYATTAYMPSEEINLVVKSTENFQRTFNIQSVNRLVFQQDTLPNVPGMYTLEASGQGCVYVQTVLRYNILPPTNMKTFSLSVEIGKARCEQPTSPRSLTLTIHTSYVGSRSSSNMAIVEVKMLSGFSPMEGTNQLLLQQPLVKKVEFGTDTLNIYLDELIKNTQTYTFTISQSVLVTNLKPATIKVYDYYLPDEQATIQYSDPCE

Regarding “A2ML1-CC (TEV-P-cleaved A2ML1t with covalently conjugated TEV-P) (from UniProt A8K2U0 19-1454; A8K2U0 19-1454) (complex)”, the fraction of picked particles that were dimers (fraction of particles) in test [1] amounted to 0.167. For “TEV-P-cleaved A2ML1t prepared in the presence of BAPN, without conjugated TEV-P (from UniProt A8K2U0 19-1454; A8K2U0 19-1454)”, in test [2], the fraction of picked particles that were dimers (fraction of particles) worked out at 0.167 and the stoichiometry N – broadly, the number of molecules, sites or subunits per partner or assembly – is 2.
